# Experimental data taken from patent publication US20260151494A1 (ARO BIOTHERAPEUTICS, published 2026).
# Numbering of substitutions follows the chain as printed.
# B1: CD71-binding FN3 domain SEQ ID NO 361 (designed binder)
# chain: MLPAPKNLVVSRVTEDSARLSWTAPDAAFDSFFIGYLEPQPPGEAIQLFVPGSERSYDLTGLKPGTEYNVTIQGVKGGFPSIPLSALFTT
# B2: CD71-binding FN3 domain SEQ ID NO 400 (designed binder)
# chain: B1 chain with Q47H, I82G, S85H, L87T
# B3: CD71-binding FN3 domain SEQ ID NO 394 (designed binder)
# chain: B1 chain with Q47Y, F49L, I82T, S85E, L87S
# B4: CD71-binding FN3 domain SEQ ID NO 391 (designed binder)
# chain: B1 chain with V9I, Q47S, F49Y, I82D, S85Q, L87I
# B5: CD71-binding FN3 domain SEQ ID NO 363 (designed binder)
# chain: B1 chain with Q47D, F49W, I82L, L87I
# B6: CD71-binding FN3 domain SEQ ID NO 392 (designed binder)
# chain: B1 chain with Q47H, F49G, I82L, S85V, L87T
# B7: CD71-binding FN3 domain SEQ ID NO 382 (designed binder)
# chain: B1 chain with Q47E, F49Y, I82D, S85E, L87D
# B8: CD71-binding FN3 domain SEQ ID NO 364 (designed binder)
# chain: B1 chain with K6N, Q47H, I82G, S85H, L87T
# B9: CD71-binding FN3 domain SEQ ID NO 398 (designed binder)
# chain: B1 chain with Q47Y, F49T, I82K, S85T, L87N
# B10: CD71-binding FN3 domain SEQ ID NO 401 (designed binder)
# chain: B1 chain with Q47A, F49W, V70I, I82M, S85V, L87N
# B11: CD71-binding FN3 domain SEQ ID NO 368 (designed binder)
# chain: B1 chain with Q47T, F49T, I82G, S85I, L87S
# B12: CD71-binding FN3 domain SEQ ID NO 373 (designed binder)
# chain: B1 chain with Q47S, I82D, S85V, L87S
# B13: CD71-binding FN3 domain SEQ ID NO 369 (designed binder)
# chain: B1 chain with Q47V, F49W, I82H, S85V, L87K, F88S
# B14: CD71-binding FN3 domain SEQ ID NO 393 (designed binder)
# chain: B1 chain with Q47G, I82L, S85Q, L87H
# B15: CD71-binding FN3 domain SEQ ID NO 396 (designed binder)
# chain: B1 chain with Q47Y, F49T, I82M, L87I
# B16: CD71-binding FN3 domain SEQ ID NO 408 (designed binder)
# chain: B1 chain with Q47G, F49W, I82M, L87I
# B17: CD71-binding FN3 domain SEQ ID NO 365 (designed binder)
# chain: B1 chain with Q47V, F49W, I82H, S85V, L87K
# B18: CD71-binding FN3 domain SEQ ID NO 415 (designed binder)
# chain: B1 chain with Q47H, F49Q, I82M, L87I
# B19: CD71-binding FN3 domain SEQ ID NO 410 (designed binder)
# chain: B1 chain with Q47A, F49W, I82Q, S85H, L87H
# B20: CD71-binding FN3 domain SEQ ID NO 375 (designed binder)
# chain: B1 chain with Q47D, F49T, I82M, L87I
# B21: CD71-binding FN3 domain SEQ ID NO 414 (designed binder)
# chain: B1 chain with Q47H, F49Y, I82H, S85I, L87N
# B22: CD71-binding FN3 domain SEQ ID NO 399 (designed binder)
# chain: B1 chain with Q47T, F49Y, I82T, S85T, L87T
# B23: CD71-binding FN3 domain SEQ ID NO 417 (designed binder)
# chain: B1 chain with I82D, S85V, L87S
# B24: CD71-binding FN3 domain SEQ ID NO 378 (designed binder)
# chain: B1 chain with Q47D, F49W, I82T, S85I, L87T, F88V
# B25: CD71-binding FN3 domain SEQ ID NO 372 (designed binder)
# chain: B1 chain with Q47N, F49L, I82L, S85L, L87E
# B26: CD71-binding FN3 domain SEQ ID NO 389 (designed binder)
# chain: B1 chain with Q47H, F49L, I82M, L87I, F88V
# B27: CD71-binding FN3 domain SEQ ID NO 383 (designed binder)
# chain: B1 chain with Q47D, F49W, I82L, S85D, L87V
# B28: CD71-binding FN3 domain SEQ ID NO 411 (designed binder)
# chain: B1 chain with Q47S, I82V, L87T
# B29: CD71-binding FN3 domain SEQ ID NO 377 (designed binder)
# chain: B1 chain with F49W, I82T, S85Q
# B30: CD71-binding FN3 domain SEQ ID NO 416 (designed binder)
# chain: B1 chain with Q47A, F49Y, I82L, S85V, L87T
# B31: CD71-binding FN3 domain SEQ ID NO 366 (designed binder)
# chain: B1 chain with Q47D, F49W, I82N, S85K, L87Q
# B32: CD71-binding FN3 domain SEQ ID NO 387 (designed binder)
# chain: B1 chain with Q47H, F49V, I82D, S85Y, L87W
# B33: CD71-binding FN3 domain SEQ ID NO 409 (designed binder)
# chain: B1 chain with Q47H, I82N, L87Q
# B34: CD71-binding FN3 domain SEQ ID NO 395 (designed binder)
# chain: B1 chain with A27T, Q47G, I82D, L87F
# B35: CD71-binding FN3 domain SEQ ID NO 376 (designed binder)
# chain: B1 chain with Q47A, F49L, I82N, S85E, L87K
# B36: CD71-binding FN3 domain SEQ ID NO 385 (designed binder)
# chain: B1 chain with Q47D, F49Y, I82H, S85Q, L87H
# B37: CD71-binding FN3 domain SEQ ID NO 405 (designed binder)
# chain: B1 chain with Q47H, F49W, I82L, L87F
# B38: CD71-binding FN3 domain SEQ ID NO 404 (designed binder)
# chain: B1 chain with Q47H, F49L, I82E, S85L, L87I, F88V
# B39: CD71-binding FN3 domain SEQ ID NO 412 (designed binder)
# chain: B1 chain with Q47G, F49L, I82H, S85L, L87V
# B40: CD71-binding FN3 domain SEQ ID NO 413 (designed binder)
# chain: B1 chain with Q47Y, F49R, I82A, S85H, L87H
# Target: T1, human CD71 extracellular domain (human, UniProt P02786 89-760)
# T1 construct: also called hCD71; CD71-ECD
# T1 sequence (P02786 89-760): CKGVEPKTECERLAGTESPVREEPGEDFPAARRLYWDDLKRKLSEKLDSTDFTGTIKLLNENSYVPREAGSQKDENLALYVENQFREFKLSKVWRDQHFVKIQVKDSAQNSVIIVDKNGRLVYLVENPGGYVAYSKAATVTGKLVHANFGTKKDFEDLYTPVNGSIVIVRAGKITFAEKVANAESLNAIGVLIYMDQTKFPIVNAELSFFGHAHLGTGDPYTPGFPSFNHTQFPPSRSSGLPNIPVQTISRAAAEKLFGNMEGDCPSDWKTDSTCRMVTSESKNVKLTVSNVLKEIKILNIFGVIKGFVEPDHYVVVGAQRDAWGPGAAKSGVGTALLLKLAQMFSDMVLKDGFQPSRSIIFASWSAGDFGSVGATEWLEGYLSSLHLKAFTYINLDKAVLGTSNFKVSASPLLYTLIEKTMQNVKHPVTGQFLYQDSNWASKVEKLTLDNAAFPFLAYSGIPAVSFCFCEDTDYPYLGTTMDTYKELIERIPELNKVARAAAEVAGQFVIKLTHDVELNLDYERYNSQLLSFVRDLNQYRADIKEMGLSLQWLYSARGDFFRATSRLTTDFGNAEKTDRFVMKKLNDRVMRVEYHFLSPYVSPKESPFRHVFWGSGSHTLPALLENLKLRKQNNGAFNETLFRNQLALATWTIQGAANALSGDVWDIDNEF
# Assay: primary ELISA; signal over HSA control; as to RLU: test concentration or dose not given here
row,Binder,hCD71:HSA
1,B1,210 ratio
2,B2,141 ratio
3,B3,218 ratio
4,B4,108 ratio
5,B5,273 ratio
6,B6,237 ratio
7,B7,160 ratio
8,B8,60 ratio
9,B9,132 ratio
10,B10,41 ratio
11,B11,218 ratio
12,B12,98 ratio
13,B13,172 ratio
14,B14,42 ratio
15,B15,165 ratio
16,B16,116 ratio
17,B17,67 ratio
18,B18,501 ratio
19,B19,46 ratio
20,B20,187 ratio

row,Binder,hCD71:HSA
1,B21,86 ratio
2,B22,297 ratio
3,B23,305 ratio
4,B24,76 ratio
5,B25,124 ratio
6,B26,121 ratio
7,B27,94 ratio
8,B28,261 ratio
9,B29,125 ratio
10,B30,54 ratio
11,B31,213 ratio
12,B32,203 ratio
13,B33,225 ratio
14,B34,72 ratio
15,B35,153 ratio
16,B36,142 ratio
17,B37,108 ratio
18,B38,122 ratio
19,B39,112 ratio
20,B40,287 ratio

# Target: T2, human apical domain of CD71 (human, UniProt P02786 189-383, limits assumed)
# T2 construct: domain: apical domain
# T2 sequence (P02786 189-383 limits assumed): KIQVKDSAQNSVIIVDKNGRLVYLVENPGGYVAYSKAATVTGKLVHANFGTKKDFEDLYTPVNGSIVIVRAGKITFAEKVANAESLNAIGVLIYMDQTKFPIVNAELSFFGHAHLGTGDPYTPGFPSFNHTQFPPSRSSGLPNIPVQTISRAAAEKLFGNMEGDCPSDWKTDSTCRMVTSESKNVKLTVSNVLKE
# Assay: primary ELISA; signal over HSA control; as to RLU: test concentration or dose not given here
row,Binder,Apical domain:HSA
1,B1,342 ratio
2,B2,163 ratio
3,B3,430 ratio
4,B4,163 ratio
5,B5,320 ratio
6,B6,194 ratio
7,B7,203 ratio
8,B8,67 ratio
9,B9,129 ratio
10,B10,42 ratio
11,B11,246 ratio
12,B12,115 ratio
13,B13,165 ratio
14,B14,58 ratio
15,B15,183 ratio
16,B16,165 ratio
17,B17,65 ratio
18,B18,516 ratio
19,B19,379 ratio
20,B20,139 ratio

row,Binder,Apical domain:HSA
1,B21,79 ratio
2,B22,255 ratio
3,B23,417 ratio
4,B24,76 ratio
5,B25,205 ratio
6,B26,129 ratio
7,B27,220 ratio
8,B28,318 ratio
9,B29,274 ratio
10,B30,52 ratio
11,B31,313 ratio
12,B32,441 ratio
13,B33,284 ratio
14,B34,92 ratio
15,B35,167 ratio
16,B36,146 ratio
17,B37,193 ratio
18,B38,146 ratio
19,B39,153 ratio
20,B40,370 ratio

# Target: T1, human CD71 extracellular domain
# Assay: primary ELISA; also: test concentration or dose not given here
row,Binder,RLU
1,B1,3.08e+06 RLU
2,B2,5.67e+06 RLU
3,B3,2.86e+06 RLU
4,B4,2.78e+06 RLU
5,B5,4.18e+06 RLU
6,B6,4.77e+06 RLU
7,B7,2.01e+06 RLU
8,B8,5.83e+06 RLU
9,B9,2.12e+06 RLU
10,B10,5.64e+06 RLU
11,B11,5.53e+06 RLU
12,B12,4.86e+06 RLU
13,B13,3.82e+06 RLU
14,B14,4.39e+06 RLU
15,B15,2.23e+06 RLU
16,B16,2.26e+06 RLU
17,B17,6.85e+06 RLU
18,B18,3.51e+06 RLU
19,B19,3.9e+06 RLU
20,B20,2.82e+06 RLU

row,Binder,RLU
1,B21,6.71e+06 RLU
2,B22,5.88e+06 RLU
3,B23,4.51e+06 RLU
4,B24,6.12e+06 RLU
5,B25,2.8e+06 RLU
6,B26,5.82e+06 RLU
7,B27,1.85e+06 RLU
8,B28,5.23e+06 RLU
9,B29,1.57e+06 RLU
10,B30,6.6e+06 RLU
11,B31,2.29e+06 RLU
12,B32,1.79e+06 RLU
13,B33,4.91e+06 RLU
14,B34,5.11e+06 RLU
15,B35,5.96e+06 RLU
16,B36,5.74e+06 RLU
17,B37,1.95e+06 RLU
18,B38,4.72e+06 RLU
19,B39,4.37e+06 RLU
20,B40,3.86e+06 RLU

# Target: T2, human apical domain of CD71
# Assay: primary ELISA; also: test concentration or dose not given here
row,Binder,RLU
1,B1,5.01e+06 RLU
2,B2,6.54e+06 RLU
3,B3,5.66e+06 RLU
4,B4,4.19e+06 RLU
5,B5,4.91e+06 RLU
6,B6,3.9e+06 RLU
7,B7,2.55e+06 RLU
8,B8,6.5e+06 RLU
9,B9,2.07e+06 RLU
10,B10,5.82e+06 RLU
11,B11,6.23e+06 RLU
12,B12,5.73e+06 RLU
13,B13,3.66e+06 RLU
14,B14,6.09e+06 RLU
15,B15,2.47e+06 RLU
16,B16,3.23e+06 RLU
17,B17,6.7e+06 RLU
18,B18,3.61e+06 RLU
19,B19,3.2e+06 RLU
20,B20,2.09e+06 RLU

row,Binder,RLU
1,B21,6.18e+06 RLU
2,B22,5.04e+06 RLU
3,B23,6.17e+06 RLU
4,B24,6.12e+06 RLU
5,B25,4.63e+06 RLU
6,B26,6.19e+06 RLU
7,B27,4.33e+06 RLU
8,B28,6.36e+06 RLU
9,B29,3.43e+06 RLU
10,B30,6.32e+06 RLU
11,B31,3.37e+06 RLU
12,B32,3.88e+06 RLU
13,B33,6.2e+06 RLU
14,B34,6.59e+06 RLU
15,B35,6.47e+06 RLU
16,B36,5.91e+06 RLU
17,B37,3.47e+06 RLU
18,B38,5.66e+06 RLU
19,B39,6e+06 RLU
20,B40,4.98e+06 RLU
